Assay results reported in patent publication US20210332145A1 (SINGLE CELL TECHNOLOGY, published 2021).

T1: human BCMA with a His tag (ACROBiosystems, Catalog No.: BCA-H522y) (human)
T1 construct: Bought His-tagged recombinant protein; also called huBCMA-His; Recombinant human BCMA
T1 chain: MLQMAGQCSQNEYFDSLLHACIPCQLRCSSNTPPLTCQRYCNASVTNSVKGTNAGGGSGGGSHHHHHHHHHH

T2: BCMA on cells (293T cells transfected with BCMA; H929, MM.1S and U266 cell lines expressing BCMA) (human, UniProt Q02223 1-184)
T2 construct: H929, MM.1S and U266 carry the native protein; also called B-cell Maturation Antigen; TNFRSF17
T2 sequence: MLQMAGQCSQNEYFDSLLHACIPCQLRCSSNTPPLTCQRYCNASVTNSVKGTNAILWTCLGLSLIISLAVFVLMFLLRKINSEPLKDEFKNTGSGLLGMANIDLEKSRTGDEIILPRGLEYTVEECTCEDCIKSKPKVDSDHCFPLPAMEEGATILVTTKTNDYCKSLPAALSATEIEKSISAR

T3: mouse BCMA with a His tag (ACROBiosystems, Catalog No.: BCA-M52H3) (mouse)
T3 construct: Bought His-tagged recombinant protein
T3 chain: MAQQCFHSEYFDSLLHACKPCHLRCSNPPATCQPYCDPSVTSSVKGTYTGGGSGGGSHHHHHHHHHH


What was measured:
[1] = target: T1, human BCMA with a His tag …; assay: SPR, Biacore T200
Description: The binding affinity of select anti-BCMA was measured on a surface plasmon resonance (SPR) instrument, Biacore T200™, against human BCMA by a method known in the art.
In experiments performed essentially as described above, a subset of anti-human BCMA antibodies of the present disclosure bind human BCMA with a His tag (ACROBiosystems, Beijing, China, Catalog No.: BCA-H522y, SEQ ID NO:2) with affinity shown in Table 6.

[2] = target: T1, human BCMA with a His tag …; assay: ELISA, plate-coated human BCMA-His
Description: (§1) The recombinantly expressed antibodies were used to assess binding activity to BCMA of different species origins by conventional ELISA according to the known art. Recombinant human BCMA, cyno BCMA, and mouse BCMA were coated onto ELISA plates to detect binding at serially diluted concentrations of the anti-BCMA antibody preparations.
(§2) The ability for antibodies of the present disclosure to bind human BCMA was measured with an ELISA assay. For the BCMA binding assay, a 96-well plate (Nunc) is coated with human BCMA with a His tag (ACROBiosystems, Catalog No.: AC108P1-180611F2-Bulk, SEQ ID NO:2) at 0.2 μg/well overnight at 4° C. Wells are blocked for 2 h with blocking buffer (PBS containing 3% bovine serum albumin). Wells are washed three times with PBS containing 0.1% Tween-20. Anti-human BCMA antibodies of the present disclosure or control IgG (100 μL) is then added and incubated at room temperature for 1 h. After washing, the plate is incubated with 100 μL of goat anti-mouse IgG Fcγ Fragment Specific-HRP conjugate (Jackson ImmunoResearch) at room temperature for 1 h. The plates are washed and then incubated with 100 μL of 3,3′,5,5′-tetra-methylbenzidine. The absorbance at 450 nm is read on a microplate reader. The half maximal effective concentration (EC50) is calculated using GraphPad Prism 6 software.
In experiments performed essentially as described above, anti-human BCMA antibodies of the present disclosure bind human BCMA with a His tag (ACROBiosystems, Beijing, China, Catalog No.: BCA-H522y, SEQ ID NO:2) with an EC50 values shown in Table 3.

[3] = target: T2, BCMA on cells (293T cells transfected …); assay: flow cytometry, H929 cells
[4] = target: T2, BCMA on cells (293T cells transfected …); assay: flow cytometry, 293T cells transfected with BCMA, above parental 293T background
[5] = target: T2, BCMA on cells (293T cells transfected …); assay: flow cytometry, H929 cells; remark: listed apart in the source
Description: A cell line expressing BCMA, H929, was used to assess binding by anti-BCMA antibodies on the native protein on the cell surface by flow cytometry according to the known art. A subset of anti-human BCMA antibodies were assayed for binding to H929 and the fraction of cells bound the labeled antibody above background defined by control is shown in Table 8.

[6] = target: T3, mouse BCMA with a His tag …; assay: ELISA, plate-coated mouse BCMA-His
Description: as §1, §2
In experiments performed essentially as described above, anti-human BCMA antibodies of the present disclosure bind mouse BCMA with a His tag (ACROBiosystems, Beijing, China, Catalog No.: BCA-M52H3, SEQ ID NO:109) with an EC50 values shown in Table 5.

Binder | Kd [1] | koff [1] | kon [1] | EC50 [2] | Mean fluorescent intensity [3] | Positive (%) [4] | Positive (%) [5] | EC50 [6]
SCT-Aa08(h/h) (antibody, V domains shown, Full IgG format, chimeric: human IgG1 heavy chain constant region, human kappa light chain constant region) VH: QVQLQQSDAELVKPGASVKISCKVSGYTFIDHTIHWMKQRPEQGLEWIGYIYPRIDSSKCNEKFKDKATLTADKSSNTAYIQLNSLTSEDSAVYFCARWDYEGFDYWGQGTTLTVSS VL: DIVMTQSPATLSVTPGDRVSLSCRASQSISDYLHWYQQKSHESPRLLIKYASQSISGIPSRFSGSGSGSDFTLSINSVEPEDVGVYYCQNGHSFPPTFGSGTKLEIK | 17.6 nM | 0.0592 s⁻¹ | 3.36e+06 M⁻¹ s⁻¹ | 3.74 ng/mL | 454 | 57.5% | 92.5% | 377 ng/mL
SCT-Aa19(h/h) (antibody, V domains shown, Full IgG format, chimeric: human IgG1 heavy chain constant region, human kappa light chain constant region) VH: QVQLQQSGPELVKPGASVRISCKASGCTFTDYYIHWVKQRPGQGLEWIGWIYPGNLNSKFNEKFRDKATLTADNSSSTAYMQLSSLTSEDSAVYFCARYNYEGYFDYWGQGTTLTVSS VL: DIVMTQSPATLSVTPGDRVSLSCRASQSIADSLHWYQQKSHESPRLLIKYASHSISGIPSRFRGSGSGSDFTLSINSVEPEDVGVYYCQNGHSFPLTFGAGTKLELK | 1.19 nM | 0.0062 s⁻¹ | 5.21e+06 M⁻¹ s⁻¹ | 3.38 ng/mL | 351 | 51% | 85.1% | –
SCT-Aa14(m/m) (antibody, V domains shown, Full IgG format: mouse IgG1 heavy chain constant region, mouse kappa light chain constant region) VH: QVQLQQSDAELVKPGASVKISCKVSSYTFTDHTIHWMKQRPEQGLEWIGYIFPRDGSTKYNEKFKGKATLTADKSSSTAYMQLNSLTSEDSAVYFCARWDYEGFDYWGQGTTLTVSS VL: DIVMTQSPATLSVTPGDRVSLSCRASQNISDYLHWYQQKSHESPRLLIKYASQSISGIPSRFSGSGSGSDFTLSINSVEPEDVGVYYCQNGHSFPPTFGSGTKLEIK | 20.4 nM | 0.0376 s⁻¹ | 1.85e+06 M⁻¹ s⁻¹ | 2.52 ng/mL | 475 | 52.2% | 75.1% | 2340 ng/mL
SCT-Aa10(h/h) (antibody, V domains shown, Full IgG format, chimeric: human IgG1 heavy chain constant region, human kappa light chain constant region) VH: QVQLQQSDAELVKPGASVKISCKVSGYTFTDHTIHWMKQRPEQGLEWIGYIFPRDGNTKYNEKFKGKATMTADKSSSTAYMQLNSLTSEDSAVYFCARWDYEGFDCWGQGTTLTVSS VL: DIVMTQSPATLSVTPGDRVSLSCRASQSISDYLHWYQQKSHESPRLLIKYASQSISGIPSRFSGSGSGSDFTLSINSVEPEDVGVYFCQNGHSFPPTFGSGTKLEIK | 9.17 nM | 0.0284 s⁻¹ | 3.1e+06 M⁻¹ s⁻¹ | 2.86 ng/mL | 495 | 57.9% | 85.5% | 941 ng/mL
SCT-Aa11(h/h) (antibody, V domains shown, Full IgG format, chimeric: human IgG1 heavy chain constant region, human kappa light chain constant region) VH: QVQLQQSDAELVKPGASVKISCKVSGYTFTDHTIHWMKQRPEQGLEWIGYIFPRDGTTKFNEMFKGKATLTADKSSSTAYMELNSLTSEDSAVYFCARWDYEGFDYWGQGTTLTVSS VL: DIVMTQSPATLSVTPGDRVSLSCRASQSISDYLHWYQQKSHESPRLLIKYASQFISGIPSRFRGSGSGSDFTLSINSVEPEDVGVYYCQNGHSFPPTFGSGTKLEIK | 47.1 nM | 0.113 s⁻¹ | 2.4e+06 M⁻¹ s⁻¹ | 3.85 ng/mL | 179 | 34.9% | 53.7% | –
SCT-Aa15(h/h) (antibody, V domains shown, Full IgG format, chimeric: human IgG1 heavy chain constant region, human kappa light chain constant region) VH: QVQLQQSDAELVKPGPSVKISCKVSGSTFTDHTVHWMKQRPEQGLEWIGYVYPRDGSTRYNEKFKGKATLTADKSSSTAYMQLNSLTSEDSAVYFCARWDYEGFDYWGQGTTLTVSS VL: DIVMTQSPATLSVTPGDRVSLSCRASQNISDYLHWYQQKSHESPRLLIKYASQSISGIPSRFSGSGSGSDFTLSINSVEPEDVGVYYCQNGHSFPPTFGSGTKLKIK | 1.19 nM | 0.0062 s⁻¹ | 5.21e+06 M⁻¹ s⁻¹ | 3.71 ng/mL | 141 | 32% | 34.8% | 226 ng/mL
SCT-Aa10(m/m) (antibody, V domains shown, Full IgG format: mouse IgG1 heavy chain constant region, mouse kappa light chain constant region) VH: QVQLQQSDAELVKPGASVKISCKVSGYTFTDHTIHWMKQRPEQGLEWIGYIFPRDGNTKYNEKFKGKATMTADKSSSTAYMQLNSLTSEDSAVYFCARWDYEGFDCWGQGTTLTVSS VL: DIVMTQSPATLSVTPGDRVSLSCRASQSISDYLHWYQQKSHESPRLLIKYASQSISGIPSRFSGSGSGSDFTLSINSVEPEDVGVYFCQNGHSFPPTFGSGTKLEIK | 9.56 nM | 0.0224 s⁻¹ | 2.34e+06 M⁻¹ s⁻¹ | 2.57 ng/mL | 2960 | 82.9% | 99.9% | 8030 ng/mL
SCT-Aa08(m/m) (antibody, V domains shown, Full IgG format: mouse IgG1 heavy chain constant region, mouse kappa light chain constant region) VH: QVQLQQSDAELVKPGASVKISCKVSGYTFIDHTIHWMKQRPEQGLEWIGYIYPRIDSSKCNEKFKDKATLTADKSSNTAYIQLNSLTSEDSAVYFCARWDYEGFDYWGQGTTLTVSS VL: DIVMTQSPATLSVTPGDRVSLSCRASQSISDYLHWYQQKSHESPRLLIKYASQSISGIPSRFSGSGSGSDFTLSINSVEPEDVGVYYCQNGHSFPPTFGSGTKLEIK | 15.7 nM | 0.0527 s⁻¹ | 3.36e+06 M⁻¹ s⁻¹ | 2.46 ng/mL | 1820 | 70.6% | 99.9% | 682 ng/mL
SCT-Aa11(m/m) (antibody, V domains shown, Full IgG format: mouse IgG1 heavy chain constant region, mouse kappa light chain constant region) VH: QVQLQQSDAELVKPGASVKISCKVSGYTFTDHTIHWMKQRPEQGLEWIGYIFPRDGTTKFNEMFKGKATLTADKSSSTAYMELNSLTSEDSAVYFCARWDYEGFDYWGQGTTLTVSS VL: DIVMTQSPATLSVTPGDRVSLSCRASQSISDYLHWYQQKSHESPRLLIKYASQFISGIPSRFRGSGSGSDFTLSINSVEPEDVGVYYCQNGHSFPPTFGSGTKLEIK | 42 nM | 0.0945 s⁻¹ | 2.25e+06 M⁻¹ s⁻¹ | 2.38 ng/mL | 1520 | 34.6% | 99.9% | –
SCT-Aa06(m/m) (antibody, V domains shown, Full IgG format: mouse IgG1 heavy chain constant region, mouse kappa light chain constant region) VH: EVQLQQSGPELVKPGNSVKISCKASGYSFTGYFMNWVMQSHGKSLEWIGRINPYNGDTFYNQKFKGKATLTVDKSSSTAHMELRSLTSEDSAVYYCARLDYTNYNSYPMDYWGQGTSVTVSS VL: DIQMTHTTSSLSASLGDRVTISCSASQGISNYLNWYLQKPDGTVKLLIYYTSNLHSGVPSRFSGSGSGTDFSLTISNLQPEDIATYYCQQYSKFPWTFGGGTKLEIK | 5.16 nM | 0.0163 s⁻¹ | 3.15e+06 M⁻¹ s⁻¹ | 2.34 ng/mL | 4300 | 91.6% | 99.9% | –
SCT-Aa01(h/h) (antibody, V domains shown, Full IgG format, chimeric: human IgG1 heavy chain constant region, human kappa light chain constant region) VH: DVQLQESGPGLVKPSQSLSLTCSVTGYSITSGYYWNWIRQFPGNKLEWMGYIRYDGSNNYNPSLKNRISITRDTSKNQFFLKLNSVTTEDTATYYCAPYDYDYAMDFWGQGTSVTVSS VL: DIQMTQSPASLSASVGETVTITCRASGNIHNYLAWYQQKQGKSPQLLVYNAKTLAHGVPSRFSGSGSGTQYSLKITSLQPEDFGTYYCQHFWSTPFTFGSGTKLEIK | 43.4 nM | 0.0355 s⁻¹ | 819000 M⁻¹ s⁻¹ | 3.38 ng/mL | 411 | 12.3% | 55.2% | –
